Where two headings read alike, the source gives them in different places.

In publication PMC5036643 one finds average duration (time between attachment and detachment) data, which are given here for 1 substance.

Common to all, as to assay: single-molecule bead assay
In assay [1] the target is Microtubules of porcine brain tubulin, tetramethylrhodamine-labelled, taxol-stabilised (porcine) (UniProt P02550).
For assay [2] the target is unchanged. The source holds these as a separate data set.
Assay [3] shares this target. The source holds these as a separate data set.
The target is the same in assay [4]. This is another data set of the same source.
For assay [5] the target is unchanged. This is another data set of the same source.
Assay [6] shares this target. The source holds these as a separate data set.
Assay [7] has the same target. This is another data set of the same source.
For assay [8] the target is unchanged. The source holds these as a separate data set.

On to “Conventional kinesin (native, from bovine brain) (complex)”, for which the average duration (time between attachment and detachment) came out at 0.92 s in assay [1]; 0.8 s in assay [2]; 0.69 s in assay [3]; 1.53 s in assay [4]; 1.11 s in assay [5]; 1.01 s in assay [6]. For the same substance, the average duration (time between attachment and detachment) in assay [7] stood at 1.19 s; in assay [8], 1.03 s.
